Laboratory results as given in article PMC3109872.

Target: ETV5 DNA-binding domain (pET-41a) (UniProt Q9CXC9 368-448)
Assay: EMSA

Sequence of ETV5 DNA-binding domain (pET-41a) (Q9CXC9 368-448): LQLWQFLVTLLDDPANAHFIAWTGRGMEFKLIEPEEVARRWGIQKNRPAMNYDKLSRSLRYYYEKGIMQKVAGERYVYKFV

B1: EBS3 probe (Ccl9) (dsDNA)
DNA 1: CTCTAGTACCAGGGAATTTAACACCCTCTTC
DNA 2: GAAGAGGGTGTTAAATTCCCTGGTACTAGAG
B1: binds.
